This is an account of results in patent US20230348572A1.

The target of the test is RBD (amino acids 340-538 NITN.GPKK) expressed on the surface of MDCK-SIAT1 cells (SARS-CoV-2) (UniProt P0DTC2).

As to H11-D4-Fc (Fc fusion), the IC50 (in general, the concentration at which inhibition is half-maximal) is 28 nM.
